Source: the supplement of paper PMC9732359
± gives the uncertainty stated by the source.

Assay: protein stability index of a GFP-peptide fusion (yeast GPS) (PSI 1-4); higher = more stable; sorted into four equal gates, so the index is relative within each strain
Outline: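 Yeast carrying a pooled library were grown to mid-log phase in leucine-free medium. Each library plasmid expresses Cherry and has a tiled 17-residue yeast protein peptide fused downstream of GFP. Cells were sorted into four equal gates by GFP/Cherry ratio, and plasmids from each gate were PCR-amplified, Illumina-sequenced and assigned to strains by barcode. Summing, across gates, the read frequency times the gate number gave each peptide's protein stability index.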

Sequence | protein stability index (doa10∆) | protein stability index (pdr5∆) | protein stability index (san1∆) | protein stability index (ubr1∆)
TGATSLFGSSNNNNNNN [YGL172W/NUP49] | 2.39 ± 0.046 | 2.07 ± 0.038 | 2.34 ± 0.056 | 2.42 ± 0.043
GDYGEEEDADQEESFSL [SRB8] | 3.76 ± 0.28 | 3.63 ± 0.17 |  | 
SQEQGMGMDLYKTSKAA [FAS1] | 3.05 ± 0.086 | 3.15 ± 0.07 | 2.72 ± 0.059 | 3.3 ± 0.057
TWRTQLAASEIGISIVG [ECM29] | 1.72 ± 0.065 | 2 ± 0.083 | 1.68 ± 0.071 | 1.88 ± 0.037
VKARHGGCDYIFSLLTG [CYT1] | 2.88 ± 0.1 | 3.02 ± 0.12 | 2.61 ± 0.086 | 2.72 ± 0.053
QQQTNALNGIDINTVNT [GRR1] | 3.31 ± 0.053 | 3.25 ± 0.055 | 3.24 ± 0.044 | 3.19 ± 0.05
LERFNKRADISKRRITE [SMC1] | 3.14 ± 0.14 | 2.7 ± 0.074 | 2.96 ± 0.17 | 2.99 ± 0.13
ALTTIKGVGRRYSNLVC [RPS18A] | 2.56 ± 0.089 | 2.4 ± 0.084 | 2.92 ± 0.12 | 2.62 ± 0.077
SLTQSVCDLALRFGEGA [PUP2] | 2.66 ± 0.19 | 3.34 ± 0.21 |  | 3.11 ± 0.21
LVISLAATNETFENINS [IRR1] | 2.07 ± 0.11 | 2.4 ± 0.13 | 1.9 ± 0.095 | 
KTYALESINNVVDQLWS [RPN2] | 2.82 ± 0.066 | 2.9 ± 0.059 | 2.7 ± 0.07 | 2.6 ± 0.055
VVAKLEDKRKVRSAEYY [RPL16B] | 3.49 ± 0.1 | 3.58 ± 0.11 | 3.15 ± 0.12 | 3.37 ± 0.14
PQGRQSTTFADCPVVPA [RPC40] | 2.89 ± 0.067 | 2.92 ± 0.078 | 2.49 ± 0.1 | 2.87 ± 0.059
TEQQIEIPEGVTVSIKS [RPL9B] | 2.24 ± 0.062 | 2.73 ± 0.071 | 2.39 ± 0.067 | 2.47 ± 0.059
FASNKKINDESSIDKKS [YML103C/NUP188] | 2.5 ± 0.066 | 2.92 ± 0.073 | 2.64 ± 0.068 | 3.14 ± 0.067
PIPSSETKADGILLETI [RRP6] | 2.86 ± 0.1 | 2.36 ± 0.065 | 2.12 ± 0.1 | 2.53 ± 0.052
NSADVDMDAQGRSDSNT [YGL100W/SEH1] | 3.45 ± 0.096 | 3.39 ± 0.088 | 3.1 ± 0.12 | 3.29 ± 0.061
DARGVIGVIAGGGRVDK [RPL2A] | 3.18 ± 0.093 | 3.11 ± 0.11 | 3.06 ± 0.11 | 2.86 ± 0.071
WLAEKFQKETNMKVTIL [PRP28] | 2.81 ± 0.18 | 3.17 ± 0.11 | 3.27 ± 0.25 | 2.79 ± 0.11
FKYIYELILAGAIDEAL [YDL116W/NUP84] | 1.6 ± 0.074 | 1.5 ± 0.073 | 1.44 ± 0.1 | 1.52 ± 0.067
EIVSDVKVVDAGNKVGQ [RPP0] |  | 3.59 ± 0.2 |  | 
NTHAVLVALKRNADELS [PRE5] | 2.13 ± 0.067 | 2.69 ± 0.05 | 2.45 ± 0.05 | 2.41 ± 0.039
EEKVLSTRLKKACKTAD [SRP68] | 3.18 ± 0.087 | 3.22 ± 0.077 | 3.56 ± 0.14 | 3.21 ± 0.075
LINEILLKSNDPLLSLY [RGR1] | 2.04 ± 0.046 | 2.15 ± 0.043 | 1.87 ± 0.077 | 2.13 ± 0.035
GRNIGHPIIQDKEGNGV [RPB3] | 3.52 ± 0.17 | 3.24 ± 0.13 | 3.04 ± 0.1 | 3.15 ± 0.13
DPELLRSYIFGGHVSQY [RPL5] | 3.16 ± 0.083 | 3.58 ± 0.13 | 3.33 ± 0.056 | 3.17 ± 0.14
VRSFSKALDELKPEIEK [LRP1] | 3.39 ± 0.088 | 3.39 ± 0.074 | 3.31 ± 0.052 | 3.22 ± 0.064

Sequence | protein stability index (doa10∆) | protein stability index (pdr5∆) | protein stability index (san1∆) | protein stability index (ubr1∆)
KENLSKSSWRQEWLANL [SIR4] | 1.98 ± 0.048 | 1.68 ± 0.034 | 1.92 ± 0.07 | 2.55 ± 0.026
NHNKTKLLKSLKNTKYF [PRP8] | 1.8 ± 0.078 | 1.83 ± 0.052 | 1.54 ± 0.095 | 2.15 ± 0.073
AHIEKQSLDTIGGSDAA [RPO21] | 3.18 ± 0.097 | 3.25 ± 0.11 | 3.32 ± 0.12 | 2.95 ± 0.095
MQHNPLAGKRGPKSGST [PGD1] | 2.94 ± 0.064 | 2.74 ± 0.057 | 2.85 ± 0.063 | 2.96 ± 0.048
VTLSQLVSVTSTLQHFQ [MED8] | 1.9 ± 0.029 | 2.02 ± 0.031 | 1.96 ± 0.037 | 1.87 ± 0.02
SDPAAKKTATEPKQKAN [SRP21] | 3.21 ± 0.11 | 3.04 ± 0.09 | 3.32 ± 0.046 | 3.01 ± 0.11
FKQSNSETFLQFYVKRW [CDC53] | 2.93 ± 0.13 | 2.96 ± 0.071 | 2.96 ± 0.097 | 2.76 ± 0.1
KPKAVARKSKEEREAAA [RPC53] | 2.57 ± 0.19 | 3.12 ± 0.1 | 2.61 ± 0.15 | 2.64 ± 0.17
DKDNPVDSRNETDHKTN [SRB4] | 3.38 ± 0.14 | 2.85 ± 0.15 | 2.88 ± 0.086 | 3.3 ± 0.18
RLELPVDFQNDLKDILE [BRR2] | 2.83 ± 0.14 | 3.09 ± 0.084 | 2.78 ± 0.061 | 2.81 ± 0.052
TLTASPDGTLIASAGKD [ASC1] | 2.86 ± 0.093 | 3.19 ± 0.1 | 3.12 ± 0.065 | 3.14 ± 0.063
DALRRGMLAMASLHSKE [MED4] | 1.87 ± 0.15 | 2.23 ± 0.15 | 2.24 ± 0.17 | 2.05 ± 0.17
LVAKLKKVKSASKKSGG [SMC4] | 2.4 ± 0.074 | 2.62 ± 0.085 | 2.13 ± 0.12 | 2.45 ± 0.052
IIMHKDVEIGRMPIMLR [RET1] | 3.29 ± 0.26 | 3.18 ± 0.16 | 2.98 ± 0.079 | 2.72 ± 0.16
NKGLVVSPYDYNHKRVS [DIB1] | 2.39 ± 0.066 | 2.41 ± 0.066 | 1.61 ± 0.11 | 2.33 ± 0.087
AMEFIFGNSLICEDPET [SMC2] | 2.38 ± 0.073 | 2.25 ± 0.054 | 1.37 ± 0.094 | 1.88 ± 0.049
QLDEFKNKYLKDVLAQT [SWP82] | 2.52 ± 0.12 | 2.52 ± 0.15 | 2.4 ± 0.1 | 2.36 ± 0.057
FNGYNPEKKEMIQEVIV [FAS2] | 3.39 ± 0.086 | 3.46 ± 0.1 | 3.4 ± 0.08 | 3.4 ± 0.11
KDQIQAGKWFDPVLDWR [SIR4] | 3.56 ± 0.14 | 3.49 ± 0.094 | 2.95 ± 0.19 | 3.22 ± 0.07
GLRAVRKNRYVILQSDL [RPT3] | 3.05 ± 0.081 | 3.06 ± 0.1 | 3.05 ± 0.08 | 3.31 ± 0.14
AMNDKDLTMGQVGERIK [RPO21] | 3.31 ± 0.17 | 3.26 ± 0.14 | 2.82 ± 0.13 | 3.08 ± 0.099
KEGASTNWDDHAIIIFG [YMR153W/NUP53] | 2.86 ± 0.094 | 3.05 ± 0.075 | 3.27 ± 0.095 | 2.59 ± 0.059
KKPGKIAKPNTANAKHT [SMB1] | 2.87 ± 0.071 | 2.73 ± 0.091 | 2.75 ± 0.089 | 2.85 ± 0.066
LSDNAKTLHSQMMSKGI [RPC34] | 3.19 ± 0.18 | 3.32 ± 0.098 | 3.26 ± 0.071 | 3.11 ± 0.056
GCLIKNLPRTKAKSVVN [RMP1] | 2 ± 0.11 | 2.52 ± 0.2 | 1.92 ± 0.17 | 2.13 ± 0.12
NYGSSLQWHAMIELICS [AAR2] | 1.31 ± 0.13 | 1.22 ± 0.13 | 1.1 ± 0.16 | 1.34 ± 0.15
LYVLPSFNIPRLTFKPW [YMR129W/POM152] | 2.2 ± 0.12 | 1.7 ± 0.096 | 1.69 ± 0.18 | 1.54 ± 0.096
